Measurements reported in the Immune Epitope Database (IEDB).

Columns and labels:
Test in all cases: IEDB peptide-MHC binding, purified MHC/competitive/radioactivity; ≥ and ≤ were set here for values at or beyond the usual limits of such assays
Conditions in all cases: source organism: Homo sapiens
[1] = biological target: HLA-A*03:01
[2] = biological target: HLA-A*11:01
[3] = biological target: HLA-A*02:01
[4] = biological target: HLA-A*33:01
[5] = biological target: HLA-A*01:01
[6] = biological target: HLA-A*31:01
[7] = biological target: HLA-A*30:01
[8] = biological target: HLA-B*27:05
[9] = biological target: HLA-A*68:01
[10] = biological target: HLA-B*08:01

## IKTSPKAN
[1]
  IC50: ≥ 20 µM
[2]
  IC50: ≥ 20 µM
[3]
  IC50: ≥ 20 µM

## IPVAIKTSPKA
[1]
  IC50: ≥ 20 µM
[2]
  IC50: ≥ 20 µM
[3]
  IC50: ≥ 20 µM

## PVAIKTSPKAN
[1]
  IC50: 4.5 µM
[2]
  IC50: 6.43 µM
[3]
  IC50: ≥ 20 µM

## PVAIKTSPK
[1]
  IC50: 0.529 µM
[2]
  IC50: 0.782 µM
[3]
  IC50: ≥ 20 µM

## AIKTSPKANKE
[1]
  IC50: 1.59 µM
[2]
  IC50: 9.92 µM
[3]
  IC50: ≥ 20 µM

## AIKTSPKA
[1]
  IC50: ≥ 20 µM
[2]
  IC50: ≥ 20 µM
[3]
  IC50: ≥ 20 µM

## KIPVAIKTSP
[1]
  IC50: ≥ 20 µM
[2]
  IC50: ≥ 20 µM
[3]
  IC50: ≥ 20 µM

## KTSPKANK
[1]
  IC50: 0.679 µM
[2]
  IC50: 1.69 µM
[3]
  IC50: ≥ 20 µM

## VAIKTSPKAN
[1]
  IC50: ≥ 20 µM
[2]
  IC50: ≥ 20 µM
[3]
  IC50: ≥ 20 µM

## KIPVAIKTSPK
[1]
  IC50: 0.253 µM
[2]
  IC50: 0.862 µM
[3]
  IC50: ≥ 20 µM

## LAKLLGAEEK
[1]
  IC50: 43.5 µM
[4]
  IC50: 20.3 µM
[2]
  IC50: ≥ 50 µM
[5]
  IC50: ≥ 50 µM
[6]
  IC50: 29.9 µM
[3]
  IC50: ≥ 50 µM
[7]
  IC50: 37.3 µM
[8]
  IC50: ≥ 50 µM
[9]
  IC50: 2.01 µM
[10]
  IC50: ≥ 50 µM

## AIKTSPKAN
[1]
  IC50: ≥ 20 µM
[2]
  IC50: ≥ 20 µM
[3]
  IC50: ≥ 20 µM

## KVKIPVAIKT
[1]
  IC50: 0.397 µM
[2]
  IC50: 10.2 µM
[3]
  IC50: ≥ 20 µM

## KTSPKANKEIL
[1]
  IC50: ≥ 20 µM
[2]
  IC50: ≥ 20 µM
[3]
  IC50: ≥ 20 µM

## IKTSPKANKE
[1]
  IC50: ≥ 20 µM
[2]
  IC50: ≥ 20 µM
[3]
  IC50: ≥ 20 µM

## VKIPVAIKTS
[1]
  IC50: ≥ 20 µM
[2]
  IC50: ≥ 20 µM
[3]
  IC50: ≥ 20 µM

## PVAIKTSP
[1]
  IC50: ≥ 20 µM
[2]
  IC50: ≥ 20 µM
[3]
  IC50: ≥ 20 µM

## VAIKTSPKANK
[1]
  IC50: 1.85 µM
[2]
  IC50: 1.63 µM
[3]
  IC50: ≥ 20 µM

## FGLAKLLGA
[1]
  IC50: ≥ 50 µM
[4]
  IC50: ≥ 50 µM
[2]
  IC50: ≥ 50 µM
[5]
  IC50: ≥ 50 µM
[6]
  IC50: 8.45 µM
[3]
  IC50: 0.107 µM
[7]
  IC50: 8.77 µM
[8]
  IC50: 3.7 µM
[9]
  IC50: ≥ 50 µM
[10]
  IC50: 0.0266 µM

## KVKIPVAIKTS
[1]
  IC50: 0.508 µM
[2]
  IC50: 11.4 µM
[3]
  IC50: ≥ 20 µM

## IKTSPKANK
[1]
  IC50: 16.5 µM
[2]
  IC50: ≥ 20 µM
[3]
  IC50: ≥ 20 µM

## VAIKTSPKA
[1]
  IC50: ≥ 20 µM
[2]
  IC50: ≥ 20 µM
[3]
  IC50: ≥ 20 µM

## HVKITDFGL
[1]
  IC50: ≥ 50 µM
[4]
  IC50: 6.53 µM
[2]
  IC50: ≥ 50 µM
[5]
  IC50: ≥ 50 µM
[6]
  IC50: 4.67 µM
[3]
  IC50: ≥ 50 µM
[7]
  IC50: 7.63 µM
[8]
  IC50: 41.3 µM
[9]
  IC50: ≥ 50 µM
[10]
  IC50: 0.475 µM

## IPVAIKTS
[1]
  IC50: ≥ 20 µM
[2]
  IC50: ≥ 20 µM
[3]
  IC50: ≥ 20 µM

## AIKTSPKANK
[1]
  IC50: 0.584 µM
[2]
  IC50: 4.65 µM
[3]
  IC50: ≥ 20 µM

## RAKLLGAEEK
[1]
  IC50: 6.56 µM
[4]
  IC50: 35.6 µM
[2]
  IC50: 21.7 µM
[5]
  IC50: ≥ 50 µM
[6]
  IC50: 0.817 µM
[3]
  IC50: ≥ 50 µM
[7]
  IC50: 1.77 µM
[8]
  IC50: 10.5 µM
[9]
  IC50: 28.9 µM
[10]
  IC50: ≥ 50 µM

## KITDFGLAK
[2]
  IC50: 0.133 µM

## GLAKLLGAEEK
[1]
  IC50: 0.664 µM
[4]
  IC50: ≥ 50 µM
[2]
  IC50: ≥ 50 µM
[5]
  IC50: ≥ 50 µM
[6]
  IC50: 1.06 µM
[3]
  IC50: ≥ 50 µM
[7]
  IC50: ≥ 50 µM
[8]
  IC50: 14.7 µM
[9]
  IC50: ≥ 50 µM
[10]
  IC50: 3.37 µM

## VAIKTSPK
[1]
  IC50: 3.68 µM
[2]
  IC50: 1.98 µM
[3]
  IC50: ≥ 20 µM

## VKIPVAIKTSP
[1]
  IC50: ≥ 20 µM
[2]
  IC50: ≥ 20 µM
[3]
  IC50: ≥ 20 µM

## IKTSPKANKEI
[1]
  IC50: ≥ 20 µM
[2]
  IC50: ≥ 20 µM
[3]
  IC50: ≥ 20 µM

## KTSPKANKEI
[1]
  IC50: ≥ 20 µM
[2]
  IC50: ≥ 20 µM
[3]
  IC50: ≥ 20 µM

## GRAKLLGAEEK
[1]
  IC50: 42.9 µM
[4]
  IC50: ≥ 50 µM
[2]
  IC50: ≥ 50 µM
[5]
  IC50: ≥ 50 µM
[6]
  IC50: 4.86 µM
[3]
  IC50: ≥ 50 µM
[7]
  IC50: ≥ 50 µM
[8]
  IC50: 0.0438 µM
[9]
  IC50: ≥ 50 µM
[10]
  IC50: ≥ 50 µM

## KIPVAIKT
[1]
  IC50: ≥ 20 µM
[2]
  IC50: ≥ 20 µM
[3]
  IC50: ≥ 20 µM

## PVAIKTSPKA
[1]
  IC50: 9.32 µM
[2]
  IC50: 11.6 µM
[3]
  IC50: ≥ 20 µM

## KIPVAIKTS
[1]
  IC50: ≥ 20 µM
[2]
  IC50: ≥ 20 µM
[3]
  IC50: ≥ 20 µM

## EKVKIPVAIKT
[1]
  IC50: 11.2 µM
[2]
  IC50: 15.1 µM
[3]
  IC50: ≥ 20 µM

## IPVAIKTSPK
[1]
  IC50: 1.66 µM
[2]
  IC50: 3.35 µM
[3]
  IC50: ≥ 20 µM

## VKIPVAIKT
[1]
  IC50: ≥ 20 µM
[2]
  IC50: ≥ 20 µM
[3]
  IC50: ≥ 20 µM
